Holding throughout (assay): time-resolved fluorescence immunoassay (TR-FIA); plate coated with monoclonal anti-PBX1; PBX1 pre-incubated with PREP1 or MEIS1 for 1 h on ice, 10 µg/mL in 1% BSA PBS, 1 h at room temperature on the plate; detected with anti-PREP1 or biotinylated anti-MEIS1/2 and Eu^3+ conjugates; normalised to the wild-type protein taken as 1
In experiment [1] the target is single mutations of most hydrophobic residues (V80, L81 and I84) of PBX1.
Experiment [2] addresses double or triple mutants (L77A/V80A, L77A/I84A, V80A/L81A, L77A/V80A/L81A) of PBX1.
Another experiment addresses PBX1Δ197-204 (human) (UniProt P40424).
For another experiment, the target named is T1, PBX1 Δ105-113 (human, UniProt P40424 1-430, Δ105-113).
T1 construct: PBX1, residues 1-430, with an internal deletion; source: E. coli, purified
T1 sequence (looked up): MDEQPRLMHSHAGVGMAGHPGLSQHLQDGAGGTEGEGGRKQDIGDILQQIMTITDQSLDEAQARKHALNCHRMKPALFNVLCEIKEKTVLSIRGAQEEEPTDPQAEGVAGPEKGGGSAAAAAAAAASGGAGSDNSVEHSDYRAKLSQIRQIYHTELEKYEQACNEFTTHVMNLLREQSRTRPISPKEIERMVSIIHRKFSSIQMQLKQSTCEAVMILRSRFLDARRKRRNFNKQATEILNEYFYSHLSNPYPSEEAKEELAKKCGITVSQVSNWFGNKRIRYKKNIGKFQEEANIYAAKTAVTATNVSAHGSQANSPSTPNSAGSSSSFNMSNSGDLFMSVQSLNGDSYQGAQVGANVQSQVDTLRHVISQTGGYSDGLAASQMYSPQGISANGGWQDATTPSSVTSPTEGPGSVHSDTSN
Conditions: both partners purified.

The target in another experiment is T2, PREP1 L69A (UniProt P55347 1-436, L69A).
T2 construct: PREP1 (PKNOX1), residues 1-436
T2 sequence (looked up): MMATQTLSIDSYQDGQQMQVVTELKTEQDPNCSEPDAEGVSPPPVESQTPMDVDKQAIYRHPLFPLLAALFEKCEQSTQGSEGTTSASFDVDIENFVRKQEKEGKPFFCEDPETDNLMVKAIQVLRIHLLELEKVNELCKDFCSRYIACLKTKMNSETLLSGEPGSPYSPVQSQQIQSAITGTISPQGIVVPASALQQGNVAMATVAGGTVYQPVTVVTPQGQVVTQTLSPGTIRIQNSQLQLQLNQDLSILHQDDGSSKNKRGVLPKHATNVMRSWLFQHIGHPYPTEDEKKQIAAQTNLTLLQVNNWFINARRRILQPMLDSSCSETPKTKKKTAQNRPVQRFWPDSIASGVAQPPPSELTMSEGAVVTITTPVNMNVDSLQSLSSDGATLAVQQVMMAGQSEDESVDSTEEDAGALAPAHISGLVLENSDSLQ
Particulars: both partners purified.

B1: PREP1_(1-436), wild-type recombinant (TR-FIA) (natural protein, UniProt P55347 1-436, looked up)
chain: MMATQTLSIDSYQDGQQMQVVTELKTEQDPNCSEPDAEGVSPPPVESQTPMDVDKQAIYRHPLFPLLALLFEKCEQSTQGSEGTTSASFDVDIENFVRKQEKEGKPFFCEDPETDNLMVKAIQVLRIHLLELEKVNELCKDFCSRYIACLKTKMNSETLLSGEPGSPYSPVQSQQIQSAITGTISPQGIVVPASALQQGNVAMATVAGGTVYQPVTVVTPQGQVVTQTLSPGTIRIQNSQLQLQLNQDLSILHQDDGSSKNKRGVLPKHATNVMRSWLFQHIGHPYPTEDEKKQIAAQTNLTLLQVNNWFINARRRILQPMLDSSCSETPKTKKKTAQNRPVQRFWPDSIASGVAQPPPSELTMSEGAVVTITTPVNMNVDSLQSLSSDGATLAVQQVMMAGQSEDESVDSTEEDAGALAPAHISGLVLENSDSLQ
notes: also called wild-type PREP1; PKNOX1; source: E. coli, purified
In the case of B1, the binding relative to wild type is 40 to 60% in experiment [1], 30 to 40% in experiment [2], 65% with PBX1Δ197-204 (human) and 75% with PBX1 Δ105-113.

B2: PBX1_(1-430), wild-type recombinant (natural protein, human, UniProt P40424 1-430, looked up)
chain: MDEQPRLMHSHAGVGMAGHPGLSQHLQDGAGGTEGEGGRKQDIGDILQQIMTITDQSLDEAQARKHALNCHRMKPALFNVLCEIKEKTVLSIRGAQEEEPTDPQLMRLDNMLLAEGVAGPEKGGGSAAAAAAAAASGGAGSDNSVEHSDYRAKLSQIRQIYHTELEKYEQACNEFTTHVMNLLREQSRTRPISPKEIERMVSIIHRKFSSIQMQLKQSTCEAVMILRSRFLDARRKRRNFNKQATEILNEYFYSHLSNPYPSEEAKEELAKKCGITVSQVSNWFGNKRIRYKKNIGKFQEEANIYAAKTAVTATNVSAHGSQANSPSTPNSAGSSSSFNMSNSGDLFMSVQSLNGDSYQGAQVGANVQSQVDTLRHVISQTGGYSDGLAASQMYSPQGISANGGWQDATTPSSVTSPTEGPGSVHSDTSN
notes: also called wild-type PBX1; purified recombinant human PBX1; source: E. coli, purified
Turning to B2, the binding result in the experiment with PREP1 L69A is listed as “binds”.

The values are drawn from publication PMC7545097, “Mapping the native interaction surfaces of PREP1 with PBX1 by cross-linking mass-spectrometry and mutagenesis” (Scientific Reports, 2020).
